According to patent US20210179715A1 (published 2021):
Substitutions are numbered along the chain they refer to. In names and notes the source's numbering stands. Where two headings read alike, the source gives them in different places.

Assays:
human Ly6G6D polypeptide = molecular target: T1, human Ly6G6D polypeptide (UniProt O95868 20-104); experiment: BIAcore
T1 chain: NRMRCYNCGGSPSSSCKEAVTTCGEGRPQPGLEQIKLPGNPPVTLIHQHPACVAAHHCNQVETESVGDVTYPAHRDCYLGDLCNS

human LY6G6D-Fc [1] = molecular target: T2, human LY6G6D-Fc (UniProt O95868 20-104); experiment: BIAcore; 37 C
T2 chain: T1 chain

human LY6G6D-Fc [2] = molecular target: T2, human LY6G6D-Fc; experiment: BIAcore; 37 C
ANT = experiment: BIAcore
QNT = experiment: BIAcore
SNV = experiment: BIAcore
Parental NNT = experiment: BIAcore
SNA = experiment: BIAcore
SNT = experiment: BIAcore
QNV = experiment: BIAcore
NNV = experiment: BIAcore
NNA = experiment: BIAcore
GNT = experiment: BIAcore
Chimeric 1G4 = experiment: Biacore
SS = experiment: BIAcore
SA = experiment: BIAcore
IS = experiment: BIAcore
[3] = molecular target: hu.20A12.IA.QNV.H12(V3-23).L2(K1-5); experiment: BIAcore; 37 C
[4] = molecular target: hu.20A12.IA.SNA.H12(V3-23).L2(K1-5); experiment: BIAcore; 37 C
[5] = molecular target: hu.20A12.IA.GNT.H12(V3-23).L2(K1-5); experiment: BIAcore; 37 C
4H7 = experiment: BIAcore; 37 C

B1: hu6E10.K1-5.V4-4 (antibody, V domains shown)
VH: EQQLQESGPGLVKPPGTLSLTCAVSGLSLSTNSINWVRQPPGKGLEWIGYIYHGDGIADYASWAKGRFTISKDSSKTQVSLKLSSVTAADTAVYFCASGAGYSLFTLWGPGTLVTVSS
VL: DAQLTQSPSTLSASVGDRVTITCQSSESVWHNNWLAWFQQKPGKRPKLLIYGASTLASGVPSRFSGSGSGTEFTLTISSLQPDDFATYYCAGGYSSSDAHVFGGGTKVEIK
Kd (human Ly6G6D polypeptide): 3.34 nM

B2: hu6E10.K3-20.V4-4 (antibody, V domains shown)
VH: B1 VH
VL: EAVLTQSPGTLSLSPGERATLSCQSSESVWHNNWLAWFQQKPGQRPRLLIYGASTLASGVPDRFSGSGSGTDFTLTISRLEPEDFAVYYCAGGYSSSDAHVFGGGTKVEIK
Kd (human Ly6G6D polypeptide): 3.11 nM

B3: hu6E10.K1-5.V3-48 (antibody, V domains shown)
VH: EQQLVESGGGLVQPGGSLRLSCAVSGLSLSTNSINWVRQAPGKGLEWIGYIYHGDGIADYASWAKGRFTISKDSAKNSVYLQMNSLRAEDTAVYFCASGAGYSLFTLWGPGTLVTVSS
VL: B1 VL
Kd (human Ly6G6D polypeptide): 1.03 nM

B4: hu6E10.K1-5.V3-53 (L1H1) (antibody, V domains shown)
VH: B3 VH with V12I, A75S, S78T
VL: B1 VL
Kd (human Ly6G6D polypeptide): 1.63 nM

B5: hu6E10.K4-1.V4-4 (antibody, V domains shown)
VH: B1 VH
VL: DAVLTQSPDSLAVSLGERATINCQSSESVWHNNWLAWFQQKPGQRPKLLIYGASTLASGVPDRFSGSGSGTDFTLTISSLQAEDVAVYYCAGGYSSSDAHVFGGGTKVEIK
Kd (human Ly6G6D polypeptide): 3.6 nM

B6: 1G4 Fab (Fab, V domains shown)
VH: EVQLVQSGAEVKKPGASVKVSCKASGYTFTTYVMHWVRQAPGQGLEWMGYINPYNDGTKYNEKFKGRVTMTRDTSISTAYMELSRLRSDDTAVYYCGRRNFDYWGQGTLVTVSS
VL: DIVMTQSPDSLAVSLGERATINCKSSQSLLLSGNQENYLAWHQQKPGQPPKTLITWASTRISGVPDRFSGSGSGTDFTLTISSLQAEDVAVYYCQQSYSAPYTFGGGTKVEIKR
Kd (human LY6G6D-Fc [1]): 1.45 nM

B7: rb20A12.IA (C35I-C50A) chimeric Fab (Fab, V domains shown)
VH: QQQLEESGGDLVKPGASLTLTCTASGFDFVNNAMIWVRQAPGKGLEWIAALSFADNTAYYATWASGRFTISKISSTTVTLRMTSLTGADTATYFCMRGDLWGPGTLVTVSS
VL: DIVMTQTPSSVSAAVGGTVTINCQASESITRYLNWYQQKPGQPPKLLIYDASKLPSGVPSRFKGSGSGTQFTLTTSDLECADAATYYCQSTSFRGRSYNNTFGGGTEVVVK
Kd (human LY6G6D-Fc [2]): 0.704 nM

B8: hu6E10.K3-20.V3-53 (L1H1) (antibody, V domains shown)
VH: B3 VH with V12I, A75S, S78T
VL: B2 VL
Kd (human Ly6G6D polypeptide): 1.3 nM

B9: hu6E10.K3-20.V3-48 (antibody, V domains shown)
VH: B3 VH
VL: B2 VL
Kd (human Ly6G6D polypeptide): 1.3 nM

B10: hu6E10.K4-1.V3-53 (antibody, V domains shown)
VH: B3 VH with V12I, A75S, S78T
VL: B5 VL
Kd (human Ly6G6D polypeptide): 1.66 nM

B11: hu6E10.K4-1.V3-48 (antibody, V domains shown)
VH: B3 VH
VL: B5 VL
Kd (human Ly6G6D polypeptide): 1.41 nM

B12: LY6G6D (other)
chain: T1 chain
Kd (ANT): 0.26 nM | Kd (QNT): 0.28 nM | Kd (SNV): 0.23 nM | Kd (Parental NNT): 0.43 nM | Kd (SNA): 0.27 nM | Kd (SNT): 0.25 nM | Kd (QNV): 0.22 nM | Kd (NNV): 0.22 nM | Kd (NNA): 0.26 nM | Kd (GNT): 0.34 nM | Kd (Chimeric 1G4): 2.7 nM

B13: Ly6G6D (other)
chain: T1 chain
Kd (SS): 2.7 nM | Kd (SA): 2.74 nM | Kd (IS): 1.26 nM

B14: Ly6G6D (Fc fusion)
chain: T1 chain
Kd [3]: 0.0335 nM | Kd [4]: 0.105 nM | Kd [5]: 0.122 nM | Kd (4H7): 0.36 nM
